Legend:
Assay in all cases: peptide or protein array; peptides synthesized on a microarray, incubated with recombinant CSN, probed with anti-CSN3 and HRP-conjugated secondary antibody; spot intensity normalized to C-CSNAP (A1), averaged from six arrays
[1] = molecular target: C-CSNAP peptide with a D-amino acid at Asp52 (peptide array)
[2] = molecular target: C-CSNAP peptide with a D-amino acid at Asp54 (peptide array)
[3] = molecular target: C-CSNAP peptide with a D-amino acid at Phe51 (peptide array)
[4] = molecular target: C-CSNAP peptide with a D-amino acid at Asp55 (peptide array)
[5] = molecular target: C-CSNAP peptide with a D-amino acid at Asp53 (peptide array)
[6] = molecular target: C-CSNAP peptide with a D-amino acid at Leu50 (peptide array)

increase of the array signal over the original 16AA C-CSNAP peptide [1]: > 20%
increase of the array signal over the original 16AA C-CSNAP peptide [2]: > 20%
increase of the array signal over the original 16AA C-CSNAP peptide [3]: > 20%
increase of the array signal over the original 16AA C-CSNAP peptide [4]: > 20%
increase of the array signal over the original 16AA C-CSNAP peptide [5]: > 20%
increase of the array signal over the original 16AA C-CSNAP peptide [6]: > 20%
Substance: recombinant COP9 signalosome complex (CSN) (from UniProt Q13098 1-491; Q9UNS2 1-423; Q92905 1-334; Q99627 2-209; Q8WXC6 1-57)

Reference: paper PMC10355216, “The C-terminal tail of CSNAP attenuates the CSN complex” (Life Science Alliance, 2023)
